Values of other authors in article PMC5838028.

Biological target: glypican-3 (Homo sapiens) (UniProt P51654)
Sequence (P51654 359-554): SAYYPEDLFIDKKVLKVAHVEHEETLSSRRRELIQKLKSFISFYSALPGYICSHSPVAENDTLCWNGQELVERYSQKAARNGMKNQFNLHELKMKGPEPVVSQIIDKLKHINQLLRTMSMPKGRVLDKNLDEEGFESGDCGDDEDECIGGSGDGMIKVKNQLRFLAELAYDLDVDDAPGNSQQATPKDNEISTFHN

codrituzumab
Kd: 0.673 nM
